Reference: patent US20110091449A1 (University of Pennsylvania, published 2011)

T1: recombinant human desmoglein 3 (Dsg3) on ELISA plates (MBL) (human, UniProt P32926 50-615, limits assumed)
T1 construct: Commercial Dsg3 ELISA plate (MBL)
T1 sequence (looked up): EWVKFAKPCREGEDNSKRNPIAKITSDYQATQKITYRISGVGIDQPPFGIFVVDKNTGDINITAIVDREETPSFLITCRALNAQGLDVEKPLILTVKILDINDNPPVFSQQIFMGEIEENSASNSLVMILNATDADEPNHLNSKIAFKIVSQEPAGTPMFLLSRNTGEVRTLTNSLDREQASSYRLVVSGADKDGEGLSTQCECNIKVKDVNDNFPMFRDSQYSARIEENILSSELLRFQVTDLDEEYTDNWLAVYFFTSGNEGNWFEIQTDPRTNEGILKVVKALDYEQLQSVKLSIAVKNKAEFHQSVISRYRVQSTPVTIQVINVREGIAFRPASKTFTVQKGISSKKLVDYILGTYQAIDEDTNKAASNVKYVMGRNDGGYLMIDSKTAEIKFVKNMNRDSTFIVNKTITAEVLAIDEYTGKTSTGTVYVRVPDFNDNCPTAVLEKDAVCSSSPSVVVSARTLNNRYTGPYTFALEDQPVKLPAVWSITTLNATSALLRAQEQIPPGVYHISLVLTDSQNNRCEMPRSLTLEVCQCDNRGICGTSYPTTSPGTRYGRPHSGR

T2: baculovirus-produced recombinant human Dsg4-EHis (human, UniProt Q86SJ6 50-631)
T2 construct: not shown: E-tag and histidine tag
T2 sequence (looked up): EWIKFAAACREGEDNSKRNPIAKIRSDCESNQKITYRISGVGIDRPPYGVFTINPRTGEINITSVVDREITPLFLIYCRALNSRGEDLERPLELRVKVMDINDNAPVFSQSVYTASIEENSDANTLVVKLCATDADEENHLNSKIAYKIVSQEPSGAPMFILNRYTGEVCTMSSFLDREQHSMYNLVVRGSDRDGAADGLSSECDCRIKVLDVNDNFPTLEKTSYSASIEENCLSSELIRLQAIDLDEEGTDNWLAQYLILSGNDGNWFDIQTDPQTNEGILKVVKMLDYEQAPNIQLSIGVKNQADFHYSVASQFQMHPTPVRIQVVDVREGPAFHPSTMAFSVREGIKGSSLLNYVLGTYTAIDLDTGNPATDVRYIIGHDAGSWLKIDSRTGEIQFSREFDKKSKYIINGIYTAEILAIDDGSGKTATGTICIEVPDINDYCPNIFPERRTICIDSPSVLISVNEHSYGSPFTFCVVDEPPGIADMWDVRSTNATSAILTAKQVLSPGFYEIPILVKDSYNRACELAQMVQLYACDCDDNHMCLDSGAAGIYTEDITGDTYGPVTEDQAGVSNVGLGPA

B1: 3-30/3h (scFv)
scFv: ELVLTQPPSVPVAPGQTANISCGGNNIGRQTVHWYQQKPGQAPVLVVFDDSDRPAGIPERFSGSNSGNTATLTISRVEAGDEADYYCQVWDSSSDHVVFGGGTQLTVLGGGSSRSSSSGGGGSGGGGQVQLVQSGGGVVQSGRSLRLSCAASGFTFSDYAMHWVRQAPGKGLEWVAVISHGGTKKYTGDSVKGRFIISRDNSKNTVFLQMNSLRVEDTAVYYCARDRVEGYVWGGTFDHWGQGTPVTVSS
notes: VH3-30, VDJ12, VL gene 3h; pathogenic; also called PF1-8-15; VH3-30 clone
B2: 1-18/L12 (scFv)
scFv: ELQMTQSPSTLSASVGDRVTITCRASQGISNWLAWYQQKPGKAPKLLIHKASSLESGVPSRFSGSGSGTEFTLTISSLQPDDFATYYCQQYYTYPLTFGGGTKVEIKGGSSRSSSSGGGGSGGGGQVQLVQSGAEVKKPGASVKVSCKASGYTFTNYGITWVRQAPGQGLEWMGWISVYNGDTKYAQKLQGRVTMTTDTPTNTVYMELRSLRSDDTAVYYCARGYGSGNWDYWGQGTLVTVSS
notes: VH1-18, VDJ1, VL gene L12; also called PF1-2-6

Key:
[1] = target: T1, recombinant human desmoglein 3 (Dsg3) …; test: Dsg3 ELISA (MBL), soluble scFv, anti-HA detection
[2] = target: T2, baculovirus-produced recombinant human …; test: immunoprecipitation of Dsg4-EHis with scFv, anti-E tag immunoblot
Description: To determine whether anti-Dsg1 scFvs also bind Dsg4, baculovirus-produced recombinant human Dsg4-EHis and human Dsg1-EHis (“EHis” tag defined above) was used (Nagasaka et al., 2004 J. Clin. Invest 114:1484-1492.). Baculovirus-infected insect cell culture supernatants containing recombinant molecules were incubated with scFvs for 30 minutes and then immunoprecipitated with anti-HA agarose (Sigma-Aldrich) at 4° C. for 2 hours with gentle rotation. After washing with TBS-Ca, the immunoprecipitates were resuspended in Laemmli sample buffer, separated by SDS-PAGE, and transferred to nitrocellulose membranes (Bio-Rad Labratories). Membranes were probed with HRP-conjugated anti-E-tag antibody (1:2000 dilution, GE Healthcare Bio-Sciences).
Some pemphigus sera bind Dsg4, and this binding was due to antibodies against Dsg1 that cross react with Dsg4. To determine whether any of the anti-Dsg1 monoclonal antibodies crossreact with Dsg4, scFvs were used to immunoprecipitate recombinant Dsg4 containing a carboxy-terminal E-epitope tag, then identified its presence on an immunoblot stained with anti-E tag antibodies.

Binder | binding result [1] | binding result [2]
B1 | no binding | no binding
B2 | no binding | no binding
